Reference: patent publication US20210198329A1 (PASTEUR INSTITUTE OF IRAN, published 2021)
Bridges are numbered along the chain shown (N, C = ends). Where no end group is shown, it is not given here.

Target: T1, low-density lipoprotein receptor-related protein 6 (LRP6) (UniProt O75581 20-1370, limits assumed)
T1 construct: also called LRP6 receptor
T1 sequence (looked up): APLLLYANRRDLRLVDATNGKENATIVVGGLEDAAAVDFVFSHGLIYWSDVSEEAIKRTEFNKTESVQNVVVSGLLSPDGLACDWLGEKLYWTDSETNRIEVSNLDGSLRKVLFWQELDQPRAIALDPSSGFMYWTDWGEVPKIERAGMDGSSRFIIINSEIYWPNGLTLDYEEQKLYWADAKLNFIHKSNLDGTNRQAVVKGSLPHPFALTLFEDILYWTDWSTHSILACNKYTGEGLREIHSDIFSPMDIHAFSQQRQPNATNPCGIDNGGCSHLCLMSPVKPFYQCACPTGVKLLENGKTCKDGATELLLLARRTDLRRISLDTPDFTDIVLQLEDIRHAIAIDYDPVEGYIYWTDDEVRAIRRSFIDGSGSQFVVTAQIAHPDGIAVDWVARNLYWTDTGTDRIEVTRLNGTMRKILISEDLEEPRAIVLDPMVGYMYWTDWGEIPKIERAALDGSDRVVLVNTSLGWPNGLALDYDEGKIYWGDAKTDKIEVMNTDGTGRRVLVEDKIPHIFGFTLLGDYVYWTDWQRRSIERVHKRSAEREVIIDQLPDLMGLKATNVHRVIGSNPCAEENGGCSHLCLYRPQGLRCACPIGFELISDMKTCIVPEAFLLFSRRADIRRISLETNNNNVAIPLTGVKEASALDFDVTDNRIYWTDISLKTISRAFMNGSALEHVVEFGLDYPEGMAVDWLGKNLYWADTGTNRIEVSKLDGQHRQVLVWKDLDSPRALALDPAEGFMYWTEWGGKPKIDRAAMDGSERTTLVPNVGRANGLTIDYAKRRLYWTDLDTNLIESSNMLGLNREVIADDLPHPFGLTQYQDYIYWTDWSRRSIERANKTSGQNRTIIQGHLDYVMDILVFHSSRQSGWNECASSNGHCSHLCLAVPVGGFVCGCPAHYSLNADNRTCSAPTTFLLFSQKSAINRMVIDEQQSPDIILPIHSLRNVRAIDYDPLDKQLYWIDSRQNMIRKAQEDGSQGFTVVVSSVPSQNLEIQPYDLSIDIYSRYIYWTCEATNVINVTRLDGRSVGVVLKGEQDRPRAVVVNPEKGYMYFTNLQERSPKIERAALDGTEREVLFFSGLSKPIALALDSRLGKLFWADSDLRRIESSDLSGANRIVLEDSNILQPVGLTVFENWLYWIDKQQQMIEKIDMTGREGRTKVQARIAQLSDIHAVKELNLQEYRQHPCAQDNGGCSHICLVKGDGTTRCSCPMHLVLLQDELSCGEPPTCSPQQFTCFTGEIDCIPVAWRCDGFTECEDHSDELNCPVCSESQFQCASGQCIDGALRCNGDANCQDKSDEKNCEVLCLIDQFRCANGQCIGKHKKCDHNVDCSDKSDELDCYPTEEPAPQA
Assay: LSPR spectroscopy; peptide on nanoparticles as ligand, LRP6 as analyte at 10^-9 to 10^-6 M; sigmoid fit of plasmon shift
Procedure: In this example, the binding affinity of exemplary peptides to the LRP6 receptor was determined by performing localized surface plasmon resonance (LSPR) spectroscopy. In the LSPR spectroscopy, the response of free electrons to nanoparticles in the presence of biomolecules may be observed as changes in wavelength and intensity of absorption. A stabilized compound on the nanoparticles' surface is called a ligand, and a second free compound is called an analyte. […] Also, the LRP6 was used as the analyte because of its negative surface charge. By adding the LRP6 as the analyte in the concentration ranges of 10⁻⁹ M to 10⁻⁶ M, the wavelength changes (plasmon shift) were recorded for each concentration. In the end, the KD values of exemplary peptides were determined by calculating the sigmoid curve of wavelength changes in terms of LRP6 concentration.

| Binder | Kd [nM] |
| --- | --- |
| CCARHFWSKIC (disulfide 1-11, Made by synthesis; Held on nanoparticles as the ligand in the LSPR assay) [pep-4 (SEQ ID NO: 4)] | ~550 |
| QVCTKHRRKGSHGLEIFQRCY (Held on nanoparticles as the ligand in the LSPR assay) [pep-2 (SEQ ID NO: 2)] | ~470 |
